Assay results taken from US20130315927A1 (Novartis, published 2013).
Residue numbers refer to the chain shown, from its start. Read-outs that look alike come from different tables or passages of the source.

T1: HIS tag
T1 construct: also called his6 tag; 6-His
T1 peptide: HHHHHH

T2: cynomolgus macaque PCSK9 with C-terminal his6 tag (cynomolgus monkey)
T2 chain: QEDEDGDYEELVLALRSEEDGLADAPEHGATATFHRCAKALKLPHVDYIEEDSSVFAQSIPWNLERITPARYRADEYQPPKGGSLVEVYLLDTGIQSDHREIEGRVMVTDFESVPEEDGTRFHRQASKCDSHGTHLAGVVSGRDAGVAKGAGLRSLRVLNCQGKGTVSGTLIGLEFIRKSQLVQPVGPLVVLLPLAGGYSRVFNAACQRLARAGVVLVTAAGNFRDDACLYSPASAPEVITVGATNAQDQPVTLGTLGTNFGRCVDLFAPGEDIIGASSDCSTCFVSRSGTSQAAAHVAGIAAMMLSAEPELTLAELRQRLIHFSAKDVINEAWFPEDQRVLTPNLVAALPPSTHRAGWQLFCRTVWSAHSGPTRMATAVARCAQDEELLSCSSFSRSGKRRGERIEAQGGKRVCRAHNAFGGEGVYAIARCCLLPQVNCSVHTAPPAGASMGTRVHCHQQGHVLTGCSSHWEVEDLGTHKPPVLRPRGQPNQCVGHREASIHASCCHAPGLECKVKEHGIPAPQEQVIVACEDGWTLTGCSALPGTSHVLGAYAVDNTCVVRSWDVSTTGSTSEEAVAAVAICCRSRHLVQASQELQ

T3: hFgfr4 hFc (human, UniProt P22455)
T3 sequence (fusion chain, looked up): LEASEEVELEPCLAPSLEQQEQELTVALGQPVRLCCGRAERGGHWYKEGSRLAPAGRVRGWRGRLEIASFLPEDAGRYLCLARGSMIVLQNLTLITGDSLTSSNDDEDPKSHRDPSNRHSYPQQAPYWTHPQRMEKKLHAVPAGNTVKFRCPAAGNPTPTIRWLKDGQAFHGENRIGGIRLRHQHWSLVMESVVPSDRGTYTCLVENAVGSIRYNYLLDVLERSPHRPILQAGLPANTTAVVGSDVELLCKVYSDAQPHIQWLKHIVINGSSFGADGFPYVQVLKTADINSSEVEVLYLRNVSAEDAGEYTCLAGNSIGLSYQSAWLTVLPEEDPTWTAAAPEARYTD

B1: mouse monoclonal antibody MAB1 (antibody, V domains shown)
VH: QVTLKESGPGILQPSQTLSLTCSFSGFSLSTSGMGVGWIRQPSGEGLEWLADIWWDDNKYYNPSLKSRLTVSKDTSSNQVFLKITSVDTADTATYYCALITTEGGFAYWGQGTLVTVSA
VL: DIVLTQSPATLSVTPGDSVSLSCRASQSINNNLHWYQQKSHESPRLLIKFASRSISGIPSKFSGSGSGTDFTLSINSVETEDFGMYFCQQSNYWPLTFGAGTNLELI
notes: also called parent mouse monoclonal antibody; murine anti-human Pcsk9 IgG1-kappa monoclonal antibody
B2: fully Humaneered Fab Clone #44 (Fab, part only; not given: kappa light chain, V domains shown, part only)
VH: QITLKESGPVLVKPTETLTLTCTVSGFSLSTSGVGVGWIRQPPGKALEWLADIWWDDNKYYNPSLKSRLTISKDTSKNQVVLTMTNMDPVDTATYYCARITTEGGFAYWGQGTLVTVSS
B3: Humaneered antibody MAB2 (antibody, human IgG1, V domains shown)
VH: B2 VH
VL: DIQMTQSPSSLSASVGDRVTITCRAGQRISHNLHWYQQKPDESPRLLINFASRLISGVPSRFSGSGSGTDFTLTISSLQPEDFATYYCQQSNYWPLTFGQGTKLEIK
B4: Humaneered antibody MAB3 (antibody, human IgG1, V domains shown)
VH: B2 VH with I2V, V10T, E16Q, P42S
VL: B3 VL

Assays:
[1] = target: T4, recombinant human PCSK9 (aa 31-692) with C-terminal His6 tag (human, UniProt Q8NBP7 31-692); test: solution equilibrium titration (SET), MSD electrochemiluminescence read-out
T4 construct: range 31-692; In the TR-FRET assay it carried a fluorophore (hPcsk9-AF); also called hPcsk9; hPCSK9
Description: Serial dilutions of Pcsk9 were prepared, and antibodies were added to each antigen concentration to reach a constant antibody concentration of 100 pM. 100 μL/well of each dilution mix was distributed in duplicate to a 96-well polypropylene microtiter plate (Greiner). The plate was sealed and incubated over night at room temperature. A 96-well Standard Bind microtiter plate (Meso Scale Discovery) was coated with 25 μL of 1 μg/mL Pcsk9 diluted in PBS. This plate was sealed and incubated over night at 4° C. After the incubation the antigen-coated Standard Bind micro titer plate was washed three times with 200 [L per well PBS/0.05% (w/v) Tween 20. Subsequently, the plate was blocked with 150 μL/well PBS/5% (w/v) BSA and incubated for one hour at room temperature with shaking. The washing steps were repeated and 25 μL/well of the antibody-antigen preparation from the polypropylene microtiter plate was transferred into the antigen-coated Standard Bind plate. The Standard Bind plate was incubated for 60 min at room temperature with shaking. […] Electrochemiluminescence signals were generated and detected by a Sector Imager 6000 (Meso Scale Discovery). […]

HIS tag = target: T1, HIS tag; test: ELISA
[2] = target: T4, recombinant human PCSK9 (aa 31-692) …; test: TR-FRET competition, labelled hPcsk9 (8 nM) and labelled hLDL-R (1 nM); MAB1 antibody as competitor
Description: The percentage inhibition was calculated with the following formula: 100−[(normalized value of treated sample/averaged normalized value of untreated samples)×100]. The percentage inhibition dose response curves were plotted using Prism version 5 with the formula, Y=Bottom+(Top−Bottom)/(1+10̂((LogIC50−X)*HillSlope)) (GraphPad Prism Software).

murine PCSK9 = target: T5, murine PCSK9 (mouse, UniProt Q80W65 35-694, limits assumed); test: solution equilibrium titration (SET), fit by the model of Piehler et al.
T5 construct: also called mouse Pcsk9
Description: (§1) The binding kinetics of the final selected candidates were analyzed using a Solution Equilibrium Titration (“SET”) assay. Briefly, serial dilutions of human, cyno, mouse, or rat Pcsk9 were prepared, and anti-Pcsk9 Ab was added to each antigen concentration to reach a constant antibody concentration of 100 pM. 100 μL/well of each dilution mix was distributed in duplicate to a 96-well polypropylene microtiter plate (Greiner). The plate was sealed and incubated over night at room temperature. A 96-well Standard Bind microtiter plate (Meso Scale Discovery) was coated with 25 μL of 1 μg/mL Pcsk9 diluted in PBS. This plate was sealed and incubated overnight at 4° C. After the incubation the antigen-coated Standard Bind micro titer plate was washed three times with 200 μL per well PBS/0.05% (w/v) Tween 20. Subsequently, the plate was blocked with 150 μL/well PBS/5% (w/v) BSA and incubated for one hour at room temperature with shaking. The washing steps were repeated and 25 μL/well of the antibody-antigen preparation from the polypropylene microtiter plate was transferred into the antigen-coated Standard Bind plate. The Standard Bind plate was incubated for 60 min at room temperature with shaking. After three additional washing steps, 25 μL of 1 μg/mL Sulfo-Tag-labeled goat anti-human-detection antibody (R32AJ-5, Meso Scale Discovery) diluted in PBS/1% (w/v) BSA/0.05% (w/v) Tween 20, buffer were added to each well and incubated one hour at room temperature with shaking. […] Electrochemiluminescence signals were generated and detected by a Sector Imager 6000 (Meso Scale Discovery).

[3] = target: T2, cynomolgus macaque PCSK9 with …; test: as above
Description: as §1

[4] = target: T4, recombinant human PCSK9 (aa 31-692) …; test: cell-based or functional assay
[5] = target: T4, recombinant human PCSK9 (aa 31-692) …; test: cell-based or functional assay; remark: listed apart in the source
[6] = target: biotinylated PCSK9-Avi-His6 (human) (UniProt Q8NBP7); test: ForteBio Octet bio-layer interferometry, biotinylated PCSK9-Avi-His6 on streptavidin sensors, Fab in solution
[7] = target: T4, recombinant human PCSK9 (aa 31-692) …; test: solution equilibrium titration (SET), MSD electrochemiluminescence read-out; remark: listed apart in the source
Description: The binding kinetics of the final selected candidates were analyzed using a Solution Equilibrium Titration (“SET”) assay. Briefly, serial dilutions of human, cyno, mouse, or rat Pcsk9 were prepared, and anti-Pcsk9 Ab was added to each antigen concentration to reach a constant antibody concentration of 100 pM. 100 μL/well of each dilution mix was distributed in duplicate to a 96-well polypropylene microtiter plate (Greiner). The plate was sealed and incubated over night at room temperature. A 96-well Standard Bind microtiter plate (Meso Scale Discovery) was coated with 25 μL of 1 μg/mL Pcsk9 diluted in PBS. This plate was sealed and incubated overnight at 4° C. After the incubation the antigen-coated Standard Bind micro titer plate was washed three times with 200 μL per well PBS/0.05% (w/v) Tween 20. Subsequently, the plate was blocked with 150 μL/well PBS/5% (w/v) BSA and incubated for one hour at room temperature with shaking. The washing steps were repeated and 25 μL/well of the antibody-antigen preparation from the polypropylene microtiter plate was transferred into the antigen-coated Standard Bind plate. The Standard Bind plate was incubated for 60 min at room temperature with shaking. […] Electrochemiluminescence signals were generated and detected by a Sector Imager 6000 (Meso Scale Discovery).

[8] = target: T4, recombinant human PCSK9 (aa 31-692) …; test: TR-FRET competition, hPcsk9-AF (8 nM) and hLDL-R-Eu (1 nM)
Source text: Data are representative of at least two independent experiments.

Rat (Pcsk9 homolog) = Rat (Pcsk9 homolog) (rat, UniProt P59996); test: solution equilibrium titration (SET), fit by the model of Piehler et al.
Description: as §1

[9] = target: T4, recombinant human PCSK9 (aa 31-692) …; test: solution equilibrium titration (SET): soluble human PCSK9 titrated against 100 pM antibody, free antibody captured on a Pcsk9-coated MSD plate; the concentration is that of human PCSK9
Description: Briefly, serial dilutions of human, cyno, mouse, or rat Pcsk9 were prepared, and anti-Pcsk9 Ab was added to each antigen concentration to reach a constant antibody concentration of 100 pM. 100 μL/well of each dilution mix was distributed in duplicate to a 96-well polypropylene microtiter plate (Greiner). The plate was sealed and incubated over night at room temperature. A 96-well Standard Bind microtiter plate (Meso Scale Discovery) was coated with 25 μL of 1 μg/mL Pcsk9 diluted in PBS. This plate was sealed and incubated overnight at 4° C. After the incubation the antigen-coated Standard Bind micro titer plate was washed three times with 200 μL per well PBS/0.05% (w/v) Tween 20. Subsequently, the plate was blocked with 150 μL/well PBS/5% (w/v) BSA and incubated for one hour at room temperature with shaking. The washing steps were repeated and 25 μL/well of the antibody-antigen preparation from the polypropylene microtiter plate was transferred into the antigen-coated Standard Bind plate. The Standard Bind plate was incubated for 60 min at room temperature with shaking. […] Electrochemiluminescence signals were generated and detected by a Sector Imager 6000 (Meso Scale Discovery).

hFgfr4 hFc [10] = target: T3, hFgfr4 hFc; test: specificity ELISA, antigen coated at 88 ng per well, absorbance 650 nm
Description: (§2) For specificity ELISAs on purified human and mouse IgGs, a 384-well plate was coated with a panel of purified human or mouse antigens at 88 ng per well and incubated overnight at 4° C. The plate was blocked and washed as described above, then 22 μL of purified mouse or human anti-PCSK9 antibody diluted to 2 μg/mL in PBS was added to each well. The plate was incubated for 1 hr at 37° C. then washed with PBST. […] The plate was incubated for 1 hr at room temperature, then washed and developed as described above.

hFgfr4 hFc [11] = target: T3, hFgfr4 hFc; test: as above; remark: listed apart in the source
Description: as §2

T5 sequence (Q80W65 other isoform, or with tags, fused parts or gaps limits assumed): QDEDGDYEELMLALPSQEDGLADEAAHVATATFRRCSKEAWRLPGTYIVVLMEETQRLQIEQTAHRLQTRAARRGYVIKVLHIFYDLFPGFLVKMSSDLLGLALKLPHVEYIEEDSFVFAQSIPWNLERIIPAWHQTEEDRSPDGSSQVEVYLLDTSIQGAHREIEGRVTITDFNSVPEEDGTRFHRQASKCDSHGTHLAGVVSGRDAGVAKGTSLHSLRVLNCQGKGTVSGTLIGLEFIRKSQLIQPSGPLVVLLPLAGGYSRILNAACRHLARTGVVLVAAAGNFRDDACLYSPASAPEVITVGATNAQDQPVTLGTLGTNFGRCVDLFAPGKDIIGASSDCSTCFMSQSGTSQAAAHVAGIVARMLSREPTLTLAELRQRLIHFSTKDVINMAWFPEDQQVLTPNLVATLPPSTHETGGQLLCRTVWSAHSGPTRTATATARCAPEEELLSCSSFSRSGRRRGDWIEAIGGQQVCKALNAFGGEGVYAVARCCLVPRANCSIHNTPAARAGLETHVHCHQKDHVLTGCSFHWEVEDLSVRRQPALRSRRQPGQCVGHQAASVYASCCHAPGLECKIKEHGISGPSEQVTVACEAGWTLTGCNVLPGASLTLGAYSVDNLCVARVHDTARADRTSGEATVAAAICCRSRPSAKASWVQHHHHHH
Rat (Pcsk9 homolog), sequence (P59996 31-691 limits assumed): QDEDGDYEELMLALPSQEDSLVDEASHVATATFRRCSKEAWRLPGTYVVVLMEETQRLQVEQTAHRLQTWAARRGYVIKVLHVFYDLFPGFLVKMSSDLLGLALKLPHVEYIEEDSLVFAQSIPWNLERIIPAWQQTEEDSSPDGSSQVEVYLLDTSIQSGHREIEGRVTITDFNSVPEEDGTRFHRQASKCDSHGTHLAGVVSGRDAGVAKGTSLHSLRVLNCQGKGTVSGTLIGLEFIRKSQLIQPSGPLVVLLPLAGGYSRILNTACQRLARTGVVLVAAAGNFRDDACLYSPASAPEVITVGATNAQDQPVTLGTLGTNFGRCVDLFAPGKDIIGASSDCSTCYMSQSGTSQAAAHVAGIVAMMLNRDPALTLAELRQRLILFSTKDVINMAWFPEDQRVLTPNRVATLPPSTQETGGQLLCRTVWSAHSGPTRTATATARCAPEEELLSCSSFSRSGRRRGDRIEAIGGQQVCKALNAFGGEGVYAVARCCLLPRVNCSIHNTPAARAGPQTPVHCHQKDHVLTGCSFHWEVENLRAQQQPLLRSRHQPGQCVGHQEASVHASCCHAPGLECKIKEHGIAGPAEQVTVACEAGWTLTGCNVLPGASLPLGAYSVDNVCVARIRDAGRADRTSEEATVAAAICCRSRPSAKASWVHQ

Binder | Kd [1] [µM] | binding result (HIS tag) | IC50 [2] [µM] | Kd (murine PCSK9) [µM] | Kd [3] [µM] | DiI-LDL-uptake by HepG2 cells treated with exogenous hPcsk9, EC50 [4] [µM] | EC50, LDL-R protection (surface LDL-R on HepG2 cells, flow cytometry) [5] [µM] | Kd [6] [µM] | Kd [7] [µM] | IC50 [8] [µM] | Kd (Rat (Pcsk9 homolog)) [µM] | IC50 (read off the curve) [9] [µM] | EC50, LDL uptake (DiI-LDL uptake by HepG2 cells with hPCSK9, flow cytometry) [5] [µM] | binding result (hFgfr4 hFc [10]) | binding result (hFgfr4 hFc [11])
B1 | 0.00027 | no binding | 0.077 | > 10 | 0.00023 | 0.194 | 0.309 | – | – | – | – | – | – | – | –
B2 | – | – | – | – | – | – | – | 0.0223 | – | – | – | – | – | – | –
B3 | – | – | – | > 10 | 0.0004 | – | 0.324 | – | 0.00026 | 0.02 | > 10 | ~0.0003 | 0.21 | no binding (tested: 2 µg/mL (single concentration)) | –
B4 | – | – | – | > 10 | 0.0004 | – | 0.3 | – | 0.0003 | 0.028 | > 10 | ~0.0003 | 0.168 | – | no binding (tested: 2 µg/mL (single concentration))
